Literature values as cited in article PMC4768738.

Experiments:
ankyrin (Homo sapiens) = ankyrin (Homo sapiens) (UniProt P16157)
p55 (Homo sapiens) = p55 (Homo sapiens) (UniProt Q00013)
Sequence of UniProt Q00013 (Q00013 2-466): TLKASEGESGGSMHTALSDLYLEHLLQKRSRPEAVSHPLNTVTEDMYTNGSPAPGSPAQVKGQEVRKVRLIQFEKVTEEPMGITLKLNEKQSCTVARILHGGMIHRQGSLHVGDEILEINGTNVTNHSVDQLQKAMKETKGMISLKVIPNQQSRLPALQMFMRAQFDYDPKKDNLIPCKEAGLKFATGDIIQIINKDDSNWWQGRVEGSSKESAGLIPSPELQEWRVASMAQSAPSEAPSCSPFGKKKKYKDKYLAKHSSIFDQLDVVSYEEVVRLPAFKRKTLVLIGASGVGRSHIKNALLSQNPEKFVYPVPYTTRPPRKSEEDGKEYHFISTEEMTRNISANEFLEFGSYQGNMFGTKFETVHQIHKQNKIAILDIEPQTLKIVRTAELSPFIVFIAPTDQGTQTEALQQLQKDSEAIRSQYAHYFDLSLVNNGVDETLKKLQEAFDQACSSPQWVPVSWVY

Sequence of UniProt P16157 (P16157 whole entry): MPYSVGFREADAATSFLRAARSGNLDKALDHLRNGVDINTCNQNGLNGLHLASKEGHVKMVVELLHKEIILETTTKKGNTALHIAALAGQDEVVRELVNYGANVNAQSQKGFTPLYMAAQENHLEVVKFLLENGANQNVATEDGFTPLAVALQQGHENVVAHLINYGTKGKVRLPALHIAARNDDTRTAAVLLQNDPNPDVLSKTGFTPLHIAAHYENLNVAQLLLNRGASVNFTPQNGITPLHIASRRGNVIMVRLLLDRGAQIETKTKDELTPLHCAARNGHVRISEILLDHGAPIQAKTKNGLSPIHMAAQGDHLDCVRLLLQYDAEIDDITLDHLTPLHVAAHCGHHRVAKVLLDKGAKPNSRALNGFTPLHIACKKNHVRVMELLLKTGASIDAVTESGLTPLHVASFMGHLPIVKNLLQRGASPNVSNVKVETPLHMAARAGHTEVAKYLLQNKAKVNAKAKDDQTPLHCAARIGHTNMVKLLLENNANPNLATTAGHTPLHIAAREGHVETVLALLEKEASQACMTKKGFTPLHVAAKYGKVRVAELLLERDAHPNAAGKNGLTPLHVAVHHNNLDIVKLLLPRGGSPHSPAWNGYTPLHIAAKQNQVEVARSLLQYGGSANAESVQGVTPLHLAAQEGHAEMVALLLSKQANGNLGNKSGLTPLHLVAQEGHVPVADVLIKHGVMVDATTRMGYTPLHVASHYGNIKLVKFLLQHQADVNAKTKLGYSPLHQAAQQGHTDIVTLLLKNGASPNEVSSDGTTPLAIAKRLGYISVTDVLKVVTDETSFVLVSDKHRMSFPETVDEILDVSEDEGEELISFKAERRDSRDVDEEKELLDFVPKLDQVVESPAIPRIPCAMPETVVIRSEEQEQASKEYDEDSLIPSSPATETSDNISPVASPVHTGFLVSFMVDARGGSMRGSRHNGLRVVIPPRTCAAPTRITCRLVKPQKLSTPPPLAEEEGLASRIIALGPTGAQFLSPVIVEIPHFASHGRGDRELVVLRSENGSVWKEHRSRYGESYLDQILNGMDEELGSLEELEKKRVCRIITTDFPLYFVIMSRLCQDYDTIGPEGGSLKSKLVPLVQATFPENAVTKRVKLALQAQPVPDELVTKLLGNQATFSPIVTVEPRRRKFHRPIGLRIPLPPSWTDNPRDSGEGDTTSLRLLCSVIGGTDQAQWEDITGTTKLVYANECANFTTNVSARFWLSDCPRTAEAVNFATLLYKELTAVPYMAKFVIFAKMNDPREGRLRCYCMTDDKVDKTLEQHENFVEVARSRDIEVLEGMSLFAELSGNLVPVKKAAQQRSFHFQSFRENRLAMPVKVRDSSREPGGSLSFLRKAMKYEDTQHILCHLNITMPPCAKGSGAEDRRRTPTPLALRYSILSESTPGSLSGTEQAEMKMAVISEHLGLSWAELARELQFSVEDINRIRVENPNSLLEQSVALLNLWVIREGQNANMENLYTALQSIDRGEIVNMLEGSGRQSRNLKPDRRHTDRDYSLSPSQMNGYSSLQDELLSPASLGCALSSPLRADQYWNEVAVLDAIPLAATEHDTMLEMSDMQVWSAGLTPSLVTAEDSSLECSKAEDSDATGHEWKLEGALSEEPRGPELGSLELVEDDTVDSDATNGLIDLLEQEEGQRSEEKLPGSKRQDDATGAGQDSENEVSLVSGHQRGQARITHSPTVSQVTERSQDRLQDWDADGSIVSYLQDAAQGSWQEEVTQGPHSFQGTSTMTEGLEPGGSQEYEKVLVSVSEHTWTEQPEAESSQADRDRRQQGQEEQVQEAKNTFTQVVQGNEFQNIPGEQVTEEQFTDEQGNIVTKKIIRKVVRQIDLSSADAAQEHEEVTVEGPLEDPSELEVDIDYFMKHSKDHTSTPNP

| Substance | Kd (ankyrin (Homo sapiens)) [nM] | Kd (p55 (Homo sapiens)) [nM] |
| --- | --- | --- |
| protein 4.2 (from UniProt P16452) | 100 |  |
| protein 4.1R (from UniProt P11171) |  | 100 |
